# Source: US7018836
# Legend:
# [1] = molecular target: human P-TEFb from HeLa extract, detected through its kinase subunit PITALRE (human); assay: cell-based or functional assay
# GST-Tat 1 86R = GST-Tat 1 86R (UniProt P04608)
# Sequence of human P-TEFb from HeLa extract, detected through its kinase subunit PITALRE (human) (P50750 whole entry): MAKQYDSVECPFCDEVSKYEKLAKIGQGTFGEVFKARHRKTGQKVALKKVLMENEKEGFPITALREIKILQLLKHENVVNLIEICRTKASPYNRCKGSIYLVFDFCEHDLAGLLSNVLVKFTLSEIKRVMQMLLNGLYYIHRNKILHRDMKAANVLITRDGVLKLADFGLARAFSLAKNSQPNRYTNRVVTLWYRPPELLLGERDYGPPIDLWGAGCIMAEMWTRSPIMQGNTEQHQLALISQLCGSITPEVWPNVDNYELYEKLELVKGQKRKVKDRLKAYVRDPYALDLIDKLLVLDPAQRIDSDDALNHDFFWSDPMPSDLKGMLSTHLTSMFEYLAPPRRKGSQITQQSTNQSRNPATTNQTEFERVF
# Sequence of GST-Tat 1 48Δ (P08515 1-218, tags or fused parts left off): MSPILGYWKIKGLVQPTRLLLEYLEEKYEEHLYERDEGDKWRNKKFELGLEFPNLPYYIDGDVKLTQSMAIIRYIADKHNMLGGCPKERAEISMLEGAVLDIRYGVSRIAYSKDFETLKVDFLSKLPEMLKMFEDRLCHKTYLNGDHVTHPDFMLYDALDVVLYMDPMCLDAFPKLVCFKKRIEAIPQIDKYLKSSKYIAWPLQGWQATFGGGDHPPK
substance,measurement,setting,value
86 residue HIV-1 Tat followed by a streptavidin binding tag at its carboxyl terminus (from UniProt P04608 1-86),"runoff transcription from the HIV-1 LTR TAR template in HNE, continuous labeling",[1],12 fold
GST-Tat 1 48Δ (from UniProt P08515 1-218; P04608 1-48),TAK activity (assayed by GST-Tat48A pull-down) after depletion of human P-TEFb from HNE by antibodies to PITALRE,[1],< 2%
"human P-TEFb from HeLa extract, detected through its kinase subunit PITALRE",phosphorylation of the CTD of RNA polymerase II,GST-Tat 1 86R,The GST-Tat 1 86R/P-TEFb protein complex can phosphorylate the CTD of RNA polymerase II
